By Kd is commonly meant the constant that tells how readily two partners part at equilibrium. Low values mean a tighter complex, high ones a looser complex.

Three molecules from US20220251236A1 (Boehringer Ingelheim, published 2022) can be followed below.

For assay [1], the target named is T1, trypsin inhibitor from glycine max soybean (Glycine max (soybean)).
T1 construct: also called Tryp
The assay can be described thus: SPR (Biacore T200), trypsin inhibitor on CM5 chip, sample at 1 µM. The source says:
To prepare the surface for the non-specific binding experiment, chicken egg white lysozyme and trypsin inhibitor from glycine max soybean were coupled manually to a series S CM5 chip with the surface density of 3000-5000 RU using the amine coupling kit according to the manufacture instructions.
In general terms: SPR reads the build-up and loss of mass on a sensor chip optically.

Assay [2] addresses T2, Human CD3 E+G HuFc-6xHis (human).
T2 construct: also called hu CD3εγ-Fc
The assay can be described thus: SPR (ProteOn XPR36), HuCD3E_HuCD3G-Fc amine-coupled, bispecific as analyte, Example 4B. Here is the method:
The binding affinity of purified DLL3/CD3 bispecific constructs for recombinant human DLL3-ECD and Fc-fusion protein of human CD3 εγ subunits was determined by Surface Plasmon Resonance (SPR), using a ProteOn XPR36 instrument (Bio-Rad).
For binding kinetic determination to CD3, HuCD3E_HuCD3G-Fc (dissolved in pH 4.5 acetate) was immobilized directly onto the sensor surface through amine coupling for 360 sec at a flowrate of 30 μl/min vertically. The baseline was stabilized by injecting PBS-T-EDTA for 60 sec at a flowrate of 30 μl/min horizontally. The analytes (all anti-DLL3/CD3 molecules) were injected horizontally over the captured antibody for 600 sec at a flowrate of 30 μl/min and a dissociation for 1800 sec.

For assay [3], the target named is T3, EGF4+5.
T3 construct: also called Hu DLL3 EGF4+5 on HEK293 cells
T3 membrane-anchored DLL3 subdomain construct: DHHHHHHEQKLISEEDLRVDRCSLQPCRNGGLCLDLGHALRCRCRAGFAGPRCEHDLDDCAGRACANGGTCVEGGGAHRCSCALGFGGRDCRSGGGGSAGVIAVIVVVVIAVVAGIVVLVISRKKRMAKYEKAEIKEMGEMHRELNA
Description: flow cytometry on HEK293 cells expressing the DLL3 subdomain construct, PE anti-human secondary, control: secondary antibody only. Here is the method:
(§1) DLL3/CD3 binding proteins were produced by transient transfection of CHO-E cells with the pTT5 vectors carrying the chain-encoding genes, as described in Example 2. […] Bound molecules were detected with PE-conjugated anti-human secondary antibody (Sigma-Aldrich, #P8047). As negative control, cells were incubated with secondary antibody only.
(§2) The samples were measured by flow-cytometry. […] The sequences of the epitope domains are listed in Example 5, Table 3.

Assay [4] concerns the target T4, EGF2+3.
T4 construct: also called Hu DLL3 EGF2+3 on HEK293 cells
T4 membrane-anchored DLL3 subdomain construct: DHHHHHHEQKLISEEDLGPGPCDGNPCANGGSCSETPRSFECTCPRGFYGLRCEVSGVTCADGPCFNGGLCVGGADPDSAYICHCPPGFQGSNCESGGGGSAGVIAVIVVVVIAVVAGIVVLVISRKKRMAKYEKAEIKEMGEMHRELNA
The assay is described as above. Here is the method: as §1, §2

The target in assay [5] is T5, EGF6+MEMBRANE PROXIMAL PEPTIDE.
T5 construct: also called Hu DLL3 EGF6+membrane proximal peptide on HEK293 cells
T5 membrane-anchored DLL3 subdomain construct: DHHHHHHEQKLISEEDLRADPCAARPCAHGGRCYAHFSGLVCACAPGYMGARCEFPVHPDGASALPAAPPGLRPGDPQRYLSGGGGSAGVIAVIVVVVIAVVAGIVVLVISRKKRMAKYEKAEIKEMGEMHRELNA
Described as above. Here is the method: as §1, §2

In assay [6] the target is T6, EGF5+6.
T6 construct: also called Hu DLL3 EGF5+6 on HEK293 cells
T6 membrane-anchored DLL3 subdomain construct: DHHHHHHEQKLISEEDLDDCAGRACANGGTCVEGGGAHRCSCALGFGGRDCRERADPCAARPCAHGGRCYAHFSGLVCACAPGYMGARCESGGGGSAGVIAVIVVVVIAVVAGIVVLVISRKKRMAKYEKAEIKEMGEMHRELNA
The assay is described as above. Here is the method: as §1, §2

Assay [7] concerns the target T7, EGF3+4.
T7 construct: also called Hu DLL3 EGF3+4 on HEK293 cells
T7 membrane-anchored DLL3 subdomain construct: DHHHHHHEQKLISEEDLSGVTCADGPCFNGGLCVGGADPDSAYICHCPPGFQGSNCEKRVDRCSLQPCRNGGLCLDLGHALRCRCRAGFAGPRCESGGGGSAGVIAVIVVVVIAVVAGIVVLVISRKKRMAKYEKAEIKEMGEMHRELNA
The assay is described as above. Here is the method:
as §1, §2

T2 sequence (chain, as listed by the source limits assumed): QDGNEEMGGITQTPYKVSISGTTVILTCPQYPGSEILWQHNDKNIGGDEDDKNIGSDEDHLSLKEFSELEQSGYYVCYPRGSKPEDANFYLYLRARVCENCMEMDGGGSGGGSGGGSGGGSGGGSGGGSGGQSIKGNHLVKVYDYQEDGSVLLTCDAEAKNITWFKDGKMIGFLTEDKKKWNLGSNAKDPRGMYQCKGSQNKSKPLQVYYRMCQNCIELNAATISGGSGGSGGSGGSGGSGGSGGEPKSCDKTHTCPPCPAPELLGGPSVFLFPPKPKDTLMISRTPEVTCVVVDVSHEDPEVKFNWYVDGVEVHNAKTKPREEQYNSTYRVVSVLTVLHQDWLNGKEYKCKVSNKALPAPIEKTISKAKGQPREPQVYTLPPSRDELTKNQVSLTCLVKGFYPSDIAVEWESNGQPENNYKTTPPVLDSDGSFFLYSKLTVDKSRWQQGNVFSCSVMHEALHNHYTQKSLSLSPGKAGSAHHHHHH
T1 sequence (P01070 25-205): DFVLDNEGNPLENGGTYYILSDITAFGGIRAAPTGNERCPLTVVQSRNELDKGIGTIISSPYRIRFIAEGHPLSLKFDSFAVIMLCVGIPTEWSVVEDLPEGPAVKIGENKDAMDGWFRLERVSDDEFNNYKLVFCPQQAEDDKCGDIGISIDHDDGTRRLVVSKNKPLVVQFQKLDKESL

B1: DLL3#11/CD3#1 (bispecific antibody, human IgG1, kappa, lambda, L234A L235A)
chain 1: QIVLTQSPAIMSASPGEKVTITCSASSSVTYIHWFQQNPGTSPKLWIYRTSYLASGVPARFSGSGSGTSYSLTISRMEAEDAATYYCQQRSSYPRTFGGGTKLEIKRTVAAPSVFIFPPSDEQLKSGTASVVCLLNNFYPREAKVQWKVDNALQSGNSQESVTEQDSKDSTYSLSSTLTLSKADYEKHKVYACEVTHQGLSSPVTKSFNRGECGGGGSEGKSSGSGSESKSTEGKSSGSGSESKSTGGGGSQVQLQQPGAELVQPGSSVKMSCKASGYAFSDYWITWVKQRPGQGLEWIGDIYPGSGSTKSSEKFKNKATLTADTSSSKAYIQFSSLTPEDSAVYYCVSLYYYGSHYLDTWGQGTTLTVSSASTKGPSVFPLAPSSKSTSGGTAALGCLVKDYFPEPVTVSWNSGALTSGVHTFPAVLQSSGLYSLSSVVTVPSSSLGTQTYICNVNHKPSNTKVDKRVEPKSCDKTHTCPPCPAPEAAGGPSVFLFPPKPKDTLMISRTPEVTCVVVDVSHEDPEVKFNWYVDGVEVHNAKTKPREEQYNSTYRVVSVLTVLHQDWLNGKEYKCKVSNKALPAPIEKTISKAKGQPREPQVYTLPPSREEMTKNQVSLWCLVKGFYPSDIAVEWESNGQPENNYKTTPPVLDSDGSFFLYSKLTVDKSRWQQGNVFSCSVMHEALHNHYTQKSLSLSPG
chain 2: EAVVTQEPSLTVSPGGTVTLTCRSSTGAVTTSNYANWVQEKPGQLPRGLIGGTNKRAPWVPARFSGSLLGGKAALTLSGAQPEDEAEYFCALWYSNLWVFGGGTKLTVLGQPKAAPSVTLFPPSSEELQANKATLVCLISDFYPGAVKVAWKADGSPVNTGVETTTPSKQSNNKYAASSYLSLTPEQWKSHRSYSCQVTHEGSTVEKTVAPAECSGGGGSEGKSSGSGSESKSTEGKSSGSGSESKSTGGGGSEVQLVESGGGLVQPGGSLKLSCAASGFTFNTYAMNWVRQAPGKGLEWVARIRSKYNNYATYYADSVKDRFTISRDDSKNTAYLQMNNLKTEDTAVYYCVRHGNFGNSYVSWFAYWGQGTLVTVSAASTKGPSVFPLAPSSKSTSGGTAALGCLVKDYFPEPVTVSWNSGALTSGVHTFPAVLQSSGLYSLSSVVTVPSSSLGTQTYICNVNHKPSNTKVDKRVEPKSCDKTHTCPPCPAPEAAGGPSVFLFPPKPKDTLMISRTPEVTCVVVDVSHEDPEVKFNWYVDGVEVHNAKTKPREEQYNSTYRVVSVLTVLHQDWLNGKEYKCKVSNKALPAPIEKTISKAKGQPREPQVYTLPPSREEMTKNQVSLSCAVKGFYPSDIAVEWESNGQPENNYKTTPPVLDSDGSFFLVSKLTVDKSRWQQGNVFSCSVMHEALHNRFTQKSLSLSPG
notes: Heterodimer of one DLL3 chain and one CD3 chain (scFab-Fc, knob-in-hole)
As to B1, the “Non-specific binding (RU)” value in assay [1] came to 13 RU. The molecule also gave an equilibrium dissociation constant (Kd) in assay [2] of 2 nM. Besides, the binding result in assay [3], in assay [4], in assay [5], in assay [6] and in assay [7] was “no binding (tested: 1.6 nM)” in each case.

B2: DLL3#1/CD3#1 (bispecific antibody, human IgG1, kappa, lambda, L234A L235A)
chain 1: EIVLTQSPGTLSLSPGERATLSCRASQSVSSNFLVWYQQKPGQAPRPLIYGASTRASGIPDRFSGSGSGADFTLTISRLEPEDFALYYCQQYGDSPYTFGQGTTLEIKRTVAAPSVFIFPPSDEQLKSGTASVVCLLNNFYPREAKVQWKVDNALQSGNSQESVTEQDSKDSTYSLSSTLTLSKADYEKHKVYACEVTHQGLSSPVTKSFNRGECGGGGSEGKSSGSGSESKSTEGKSSGSGSESKSTGGGGSQVQLVQSGAEVKKPGASVKVSCKASGNTFTNYYMHWVRQAPGPGLEWMGIIDPSVGSKSYAQKFLGRVTIARDTSTSTVFLDLYSLRSEDTAVYFCARAGKRFGESYFDYWGQGTLVTVSSASTKGPSVFPLAPSSKSTSGGTAALGCLVKDYFPEPVTVSWNSGALTSGVHTFPAVLQSSGLYSLSSVVTVPSSSLGTQTYICNVNHKPSNTKVDKRVEPKSCDKTHTCPPCPAPEAAGGPSVFLFPPKPKDTLMISRTPEVTCVVVDVSHEDPEVKFNWYVDGVEVHNAKTKPREEQYNSTYRVVSVLTVLHQDWLNGKEYKCKVSNKALPAPIEKTISKAKGQPREPQVYTLPPSREEMTKNQVSLWCLVKGFYPSDIAVEWESNGQPENNYKTTPPVLDSDGSFFLYSKLTVDKSRWQQGNVFSCSVMHEALHNHYTQKSLSLSPG
chain 2: EAVVTQEPSLTVSPGGTVTLTCRSSTGAVTTSNYANWVQEKPGQLPRGLIGGTNKRAPWVPARFSGSLLGGKAALTLSGAQPEDEAEYFCALWYSNLWVFGGGTKLTVLGQPKAAPSVTLFPPSSEELQANKATLVCLISDFYPGAVKVAWKADGSPVNTGVETTTPSKQSNNKYAASSYLSLTPEQWKSHRSYSCQVTHEGSTVEKTVAPAECSGGGGSEGKSSGSGSESKSTEGKSSGSGSESKSTGGGGSEVQLVESGGGLVQPGGSLKLSCAASGFTFNTYAMNWVRQAPGKGLEWVARIRSKYNNYATYYADSVKDRFTISRDDSKNTAYLQMNNLKTEDTAVYYCVRHGNFGNSYVSWFAYWGQGTLVTVSAASTKGPSVFPLAPSSKSTSGGTAALGCLVKDYFPEPVTVSWNSGALTSGVHTFPAVLQSSGLYSLSSVVTVPSSSLGTQTYICNVNHKPSNTKVDKRVEPKSCDKTHTCPPCPAPEAAGGPSVFLFPPKPKDTLMISRTPEVTCVVVDVSHEDPEVKFNWYVDGVEVHNAKTKPREEQYNSTYRVVSVLTVLHQDWLNGKEYKCKVSNKALPAPIEKTISKAKGQPREPQVYTLPPSREEMTKNQVSLSCAVKGFYPSDIAVEWESNGQPENNYKTTPPVLDSDGSFFLVSKLTVDKSRWQQGNVFSCSVMHEALHNRFTQKSLSLSPG
Turning to B2, in assay [2], the affinity, expressed as Kd, was 2 nM.

B3: DLL3#7/CD3#1 (bispecific antibody, human IgG1, kappa, lambda, L234A L235A)
chain 1: EIVLTQSPDTLSLSPGERATLSCRASQSVNSNFLAWYQQKPGQTPRLLIFGTSSRATGIPDRFSGSGSGTDFTLTISRLEPEDFAVYYCQQYGSSPWTFGQGTKVEIRRTVAAPSVFIFPPSDEQLKSGTASVVCLLNNFYPREAKVQWKVDNALQSGNSQESVTEQDSKDSTYSLSSTLTLSKADYEKHKVYACEVTHQGLSSPVTKSFNRGECGGGGSEGKSSGSGSESKSTEGKSSGSGSESKSTGGGGSQVQLVESGGGVVQPGRSLRLSCAASGFTFSSYGMFWVRQAPGKGLEWVAVIWLDGDDEDYVDSVKGRFTISRDDSKNTLYLQMNSLRVDDTAIYYCARVLDYWGQGTLVTVSSASTKGPSVFPLAPSSKSTSGGTAALGCLVKDYFPEPVTVSWNSGALTSGVHTFPAVLQSSGLYSLSSVVTVPSSSLGTQTYICNVNHKPSNTKVDKRVEPKSCDKTHTCPPCPAPEAAGGPSVFLFPPKPKDTLMISRTPEVTCVVVDVSHEDPEVKFNWYVDGVEVHNAKTKPREEQYNSTYRVVSVLTVLHQDWLNGKEYKCKVSNKALPAPIEKTISKAKGQPREPQVYTLPPSREEMTKNQVSLWCLVKGFYPSDIAVEWESNGQPENNYKTTPPVLDSDGSFFLYSKLTVDKSRWQQGNVFSCSVMHEALHNHYTQKSLSLSPG
chain 2: EAVVTQEPSLTVSPGGTVTLTCRSSTGAVTTSNYANWVQEKPGQLPRGLIGGTNKRAPWVPARFSGSLLGGKAALTLSGAQPEDEAEYFCALWYSNLWVFGGGTKLTVLGQPKAAPSVTLFPPSSEELQANKATLVCLISDFYPGAVKVAWKADGSPVNTGVETTTPSKQSNNKYAASSYLSLTPEQWKSHRSYSCQVTHEGSTVEKTVAPAECSGGGGSEGKSSGSGSESKSTEGKSSGSGSESKSTGGGGSEVQLVESGGGLVQPGGSLKLSCAASGFTFNTYAMNWVRQAPGKGLEWVARIRSKYNNYATYYADSVKDRFTISRDDSKNTAYLQMNNLKTEDTAVYYCVRHGNFGNSYVSWFAYWGQGTLVTVSAASTKGPSVFPLAPSSKSTSGGTAALGCLVKDYFPEPVTVSWNSGALTSGVHTFPAVLQSSGLYSLSSVVTVPSSSLGTQTYICNVNHKPSNTKVDKRVEPKSCDKTHTCPPCPAPEAAGGPSVFLFPPKPKDTLMISRTPEVTCVVVDVSHEDPEVKFNWYVDGVEVHNAKTKPREEQYNSTYRVVSVLTVLHQDWLNGKEYKCKVSNKALPAPIEKTISKAKGQPREPQVYTLPPSREEMTKNQVSLSCAVKGFYPSDIAVEWESNGQPENNYKTTPPVLDSDGSFFLVSKLTVDKSRWQQGNVFSCSVMHEALHNRFTQKSLSLSPG
Take B3: in assay [2], binding was put at a Kd of 1 nM.
